Data published in the nanobody polyreactivity screen of Harvey et al. (2022).

Experiment: yeast display, Sf9 membrane polyspecificity reagent, FACS + sequencing; frameworks hold sequencing errors
Outline: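 Using colony PCR, genes from sorted yeast display clones were amplified, then sequenced on MiSeq at 2 × 250 and filtered by CDR length. The clones had been stained with 10% biotinylated, detergent-solubilized Sf9 membrane reagent for 1 hour at 4 °C and sorted by FACS into low and high (top ~1%) gates on anti-HA and streptavidin fluorescence. Polyreactivity labels come from the gate of origin.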

Sequence	polyreactivity (PSR sort gate)
QVQLVESGGGLVQAGGSLRLSCAASGSIFRIYAMGWYRQAPGKERELVAAITGRGGSTYYADSVKGRFTISRDNAKNTVYLQMNSLKPEDTAVYYCAAEERYAYRYDYWGQGTQVTVSS	high polyreactivity
QVQLVESGGGLVQAGGSLRLSCAASGSTFAYYVMGWYRQAPGKERELVAAISRGGRTYYADSVKGRFTISRDNAKNTVYLQMNSLKPEDTAVSYCAKPYHQRSAKVDYWGQGTQVTVSS	low polyreactivity
QVQLVESGGGLVQAGGSLRLSCAASGRIFLGYAMGWYRQAPGKERELVAAISRSGGRTYYADSVKGRFTISRDNAKNTVYLQMNRLKPEDTAVYYCAARALYPLGYDYWGQGTQVTVSS	high polyreactivity
QVQLVESGGGLVQAGGSLRLSCAASGIILRRYAMGWYRQPPGKERELVAAISSRGGSTYYADSVKGRFTISRDNAKNTVYLQMNSLKPEDTAVYYCAAEDYWYDFDYWGQGTQVTVSS	high polyreactivity
QVQLVESGGGLVQAGGSLRLSCAASGYIFKYYAMGWYRQAPGKERELVATINYSGGGTYYADSVKGRFTISRDNAKNTVYLQMNSLKPEDTAVYYCAAEHFFWGYDYWGQGTQVTVSS	high polyreactivity
QVQLVESGGGLVQAGGSLRLSCAASGSTFDFNAMGWYRQAPGKERELVAAITYSAGSTYSADSVKGRFTISRDNAQNTVDLQMNSLKPEDTAVYYCAAEDVYPGSIDMDDWGQGTQVTVSS	low polyreactivity
QVQLVESGGGLVQAGGSLRLSCAASGRIFYSYAMGWYRQAPGKERELVAAISSRTGSTYYADSVKGRFTISRDNAKNTVYLQMNSLKPEDTAVYYCAAQSGWLRYYYWGQGTLVTVSS	high polyreactivity
QVQLVESGGGLVQAGGSLRLSCAASGSIFGQYAMGWYRQAPGKERELVAAITWDGTSTYYADSVKGRFTISRDNAKNTVYLQMNSLKPEDTAVYYCAADFYPYSWEEVDYWGQGTQVTVSS	low polyreactivity
QVQLVDSGRGLVQAGGSLRLSCAASGSIFGKYAMGWYREAPGKERELVAAISKGGGRTSYADSVKGRFTISRDNAKNTVYLQMNSLKPEDTAVYYCNVAQNYWAGLYDYWGQGTQVTVSS	high polyreactivity
QVQLVESGGGLVQAGGSLRLSWAASGSIFRYNAMGWYRQAPGKERELVAAISSGGGTTYYADSVKGRFTISRDNAKNSVYLQMNSLKPEVTAVYYCNARSYYQRTTYPFRVDYWGQGTQVTVSS	high polyreactivity
QVQLVESGAGLVQAGGSLRLSCAPSGSILVNPIGWYRQAPGKEREFVAAISSGGSTKYADSVKGRFTISRDNAKNTVYLQMNSLKPEATAVYYCNARRRGAGGYDYWGQVTQVTVSS	high polyreactivity
QVQLVESGGGLVQAGGSLRLSCAASGRTLYRYAMGWYRQAPGKERELVAAIRSGGRTNYADSVKGRFTISRDNAKNTVYLLMNSLKPEDTAVYYCAARTLRYPSTYDYWGQGTQVSVSS	high polyreactivity
QGQLVETGGGLVQAGGSLRLSCAASGRIFDDNAMGWYRQAPGKERELVASITVSTGSTYYADSVKGRFTISRDNAKNTVYLKMNSLKPEDTAVYYCAKDNSLPDYDYWGQGSQVTVSS	low polyreactivity
QLQLVESGGGLFQAGGSLRLSCAPSGFIFTAYTMGWYRQAHGKESELVAAIDSGGGTYYADYVKGRFTISRYNAKNTVYLQIHSLKPDDTAVYYCAADPAKSRAGDFDYWGQGTQVTVSS	high polyreactivity
QVQHVESVGGLVQAGGSLRLSSATSGSIFITNAMGCYRQPPGKESELVAAIRDSGDRTYYADSVKGRFTISRDNGKNNVSLQMNSLKPEDTAVYYCNARCQEPLNYDYWGQGTQGTVSS	low polyreactivity
QVQLVESGGGLVQAGGSLRLSCAATGRIFWDYAMGWYRQAPGKERELVAANAWGSGRTYYADSVKGRFTISRDNAKNTVNLQMNSLKPEDTAVYYCHAVRYLFIYPRYDYWGQGTQVTVSS	high polyreactivity
QVQLVESGGGLVQAGGSLRLSCAASGSTFKRYDMGGYRQAPGKECEFVAGISSRGSRTYYADSVTGRFTISRDNAKNSVYFKMNILKPEDSAVYYCAVSGNHVSPPYGFWGQGTQVNVSS	high polyreactivity
QVQLVESGGGLVQAGGSLRLSCAASGRISGVNAMGWSRQAPGKERELVATISGSGGRTYYADSVKGRFTISRDNAKNTVYLQMNSLNPEDTGGYYCNSMVERGGYFSRRFDFWGQGSQVTVSS	low polyreactivity
QVQLVESGGGLVQAGGSLRLSCAASGRISKIYAMGWYRQAPGKERELVAAINSGGSTNYADSVKGRFTISRDNAKNTVYLQLNSLKPEDTAVYYCAATFKSGMDYWGQGTQVTVSS	high polyreactivity
QVQLVESGGGLVQAGGSLRLSCAASGGTFYYNAMGWYRQAPGKERELVAGITQSGGNTYYADSVKGRFTISRDNAKNTDYLQMNSLKPEDTAVYYCAARIRGTWKYGYWGQGTQVTVSS	low polyreactivity
QVQLVESGGGLVQAGGSLRLSCAASGNIFIYNAMGWNRQAPGKERELVAAISVSGGDTYYADSVKGRFTISRDNAKYTVYLQLNSLKPEDTAVYYCAAEAEYIELDYWGQGTQVTVSS	low polyreactivity
QVQLVESGGGLVQAGGSLRLSCAASGRTLLYYAMGWYRQAPGKERELVARISTGGGTSYADSVKGRFTISRDNAKNTVYLQMNSLKPEDTAVFYCAAKRSYRRALLTLDYWGHGTQVTVSS	high polyreactivity

Sequence	polyreactivity (PSR sort gate)
QVQLVESGGGLVQAGGSRRLSCAASGSIFVKYAMGWYRQAPGKERELVAAKSQSGVRTYYADSVKGRFTISRDNAKNTVYLQMNSLTPEDTAVYYCAAYSGYYYWGQGTQVTVSS	high polyreactivity
QVQLVESGGGLVQAGGSLRLSCAASGSTFINYAKGWYRHAPGKERELVAAYADSVKGRFSISRDNAKNTVYLQMNSLKPEDTAVYYCAARGTIYVLGVPARPVPDGDYWGQGTQVTVSS	low polyreactivity
QVQLEESGGGLVQAGGSLRISCAASGRTFRRYAMGWYRQAPGKERELVATISRGGSTYYADSVKGRFTISRDNAKNTVYLQMNSLKPEDTAVFYCAAQRQVIYASEENYWGQGTQVTVSS	high polyreactivity
QVQLVESGGGLVQAGGSLRLSCAASGYTQPANGMGLYRQAPGKERELVAAISFIAGSTYYADSVKGRFTISRDNAKNTVYLQMNSLKPEDTAVYYCATQFPPSTIYDYWGQGTQVSVSS	low polyreactivity
QVQLVESGGGLVQAGGSLRLSCAASGYIFVYYVMGWYRQAPGKERELVTAIDGNGVSTYYADSVKGRFSISRDNAKYSVYLQMNSLKPDDTAVYYCAADYLYHQTSRGKYYSWGQGTQVTVSS	low polyreactivity
QVQLGESGGGLVQAGGSLRLSCAASGSTFGGYAMGWYRQAPGKERELVAAISSSGTSTYYADSVKGRFTISRDNAKNTVYLQMNSLKPDDTAVYYCATDFSFFSRFDYWGQGTQVTVSS	low polyreactivity
QVQLVESVGGLVQAGGSLSLSCAASGRIFVWYTMGWYRQAPGKEREFVASINGGGNTNYADSVKGRFTISRDNAKNTVYLQMNSLKPEDTADYYCAREYFGEMDYWGHGTQVTVSS	low polyreactivity
QVQLVESGGGLVQAGGSLRLSCAASGRTLYLYAMGWYRQAPGKERELVAGITWSGGSTYYADSVKGRFTISRDNAKNTVYLQMNSLKPEDTAVYYCAAVSYPDYDYWGQGTQVTVSS	low polyreactivity
QVQLVESGGGLVQAGGSLRLSCAASGYIFGWYTMGWYRQAPGKERELVAAISGGGRTYYADSVKGRFTISRDNAKNTVYLQMNSLKPEDTAVYYCAARVAQVAYPDGYWGQGTQVTVSS	high polyreactivity
QVQLVESGGGLVQAGGSLRLCCAASGSTFGYYAMGWYRQAPGKDRELVAVITWNGGGTYYADSVKGRFTISRDNAKNTVYLQMNSLKPEDTAVYDCAADASLYTDEYDYWGQGTQVTVSS	low polyreactivity
QVQLVESGGGLVQAGGSLRLSCAASGFTFWSYAMGWYRQAPGKERELVAGITIDGNTYYADSVKGRFTISRDNAKNTVYLQMNSLKPEDTAVYYCAAVAYYYGYDYWGQGTQVTVSS	low polyreactivity
QVQLVESGGGLVQAGGSLRLSCAASGRTFGVNAMGWYRQAPGKERELVAVISRSTGSTYYADSVKGRFTISRDNAKNTVYLQMNSLKPEDTAVYYCAAGFWVRGFRRFDYWGQGTQVTVSS	high polyreactivity
QVQLVESGGGLVQAGGSLRLSCAASGFIFHRYAMGWYRQAPGKERELVASITRSGGSTYYADSVKGRFTISRDNAKNTVYLQMISLKPEDTAVYYCAAQLPSYYKYPRHDYWGQGTQVTVSS	high polyreactivity
QVQLVESGGGLVQAGGSLRLSCAASGRTFYIYAMGGNRQATGKERELVAAITWRGGRTYYADSVKGRFTISRDNAKNTFYLQMNSLKPEDTAVYYCGARTGQGPMYKHWGQGTQVTLSS	high polyreactivity
QVQLVESGGGLVQAGGSLRLSCDASGSIFRLYAMGWYRQAPGKERELVARITRRCGDTYADSVKGRFTISRDNAKNTVYLQMNSLKREDTAVYYCAADGYHRYPGSSGYGYWGQGTQVTVSS	high polyreactivity
QVQLVQSGGGLVQAGGSLSLSCAASGYIFISYAMGWNRQAPGQEREFVAAITGDGGSTYADSVKGRFTISRDNAKKTVYGQMNSLKPEDTAVYYCAKKGNASRYFIYDYWGQGTQVTVSS	low polyreactivity
QVQLVESGGGLVQAGGSLRLSCAASGSTFDAYAMGLYRQAPGKERELVAAITNAGSTNYADSVKGRFTISRDNAKNTVYLQMNSLKPEDTAVYYCATDWYHRYLDGRYDYWGQGTQVTVSS	low polyreactivity
QVQHVESGGGLVQAGGSLRLSCAASGTIFLYNAMGWYRQAPGKERELVAAIRGSDGITFYADSVKGRFTISRDNAKNTVYLQMNSLKPEDTAVYYCAKDTYRSPRHDYGYWGQGTQVTVSS	low polyreactivity
QVQLVESGGGLVQAGGSLRLSCAASGRIFYSYAMGWNRQAPGKESQLVARSTRGSSTYYADSVKGRLTISRDNAKKTFYVQMNSMKPEDTAVYYCAQSRYTALTNHWSHDYWGPGTQVTVSS	low polyreactivity
QVQLVESGGSLVQAGGSLRLSCSASGFIFYTNAMGWYRQAPGKERELVAAISSRGTRTYYADSVKGRFTISRDNAKNSVYLQLNSLKPEDTAVYYCAVRTRYLGLEYYYWGQGSQVTVSS	high polyreactivity
QVQLVESGGGLVQAGGSFRLSCAASGGTVDTYVMGWYRQAPGKERELVAVITRGASTYYADSVKGRFTISRDNAKNTVYLQMNSLKPEDTAVYYCAAACYSPDYYRFWYSFDYWGQGTQVTVSS	low polyreactivity
